T1: I-SceI K86R/G100C (Saccharomyces cerevisiae, UniProt P03882 1-235, K86R;G100C)
T1 sequence: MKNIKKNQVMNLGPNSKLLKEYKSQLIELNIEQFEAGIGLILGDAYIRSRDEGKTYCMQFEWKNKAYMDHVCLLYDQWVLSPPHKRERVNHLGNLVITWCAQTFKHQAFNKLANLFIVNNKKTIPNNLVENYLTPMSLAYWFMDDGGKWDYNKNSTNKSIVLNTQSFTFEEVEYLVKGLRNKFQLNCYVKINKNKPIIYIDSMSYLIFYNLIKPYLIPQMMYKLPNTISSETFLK

T2: I-SceI G100S (Saccharomyces cerevisiae, UniProt P03882 1-235, G100S)
T2 sequence: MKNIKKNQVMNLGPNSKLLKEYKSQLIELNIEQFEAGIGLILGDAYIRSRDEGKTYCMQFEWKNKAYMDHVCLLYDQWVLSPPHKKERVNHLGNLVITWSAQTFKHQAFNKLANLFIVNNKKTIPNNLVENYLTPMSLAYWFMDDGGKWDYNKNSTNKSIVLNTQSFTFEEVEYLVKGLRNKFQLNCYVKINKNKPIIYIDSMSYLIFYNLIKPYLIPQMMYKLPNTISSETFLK

T3: I-SceI K86R/G100S (Saccharomyces cerevisiae, UniProt P03882 1-235, K86R;G100S)
T3 sequence: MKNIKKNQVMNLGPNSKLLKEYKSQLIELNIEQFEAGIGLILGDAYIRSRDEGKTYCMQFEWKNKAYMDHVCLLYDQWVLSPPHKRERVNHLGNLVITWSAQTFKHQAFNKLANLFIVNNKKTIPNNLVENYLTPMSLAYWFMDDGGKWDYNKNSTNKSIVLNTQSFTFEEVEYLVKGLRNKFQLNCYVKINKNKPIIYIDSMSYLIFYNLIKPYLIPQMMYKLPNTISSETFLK

T4: I-SceI G100T (Saccharomyces cerevisiae, UniProt P03882 1-235, G100T)
T4 sequence: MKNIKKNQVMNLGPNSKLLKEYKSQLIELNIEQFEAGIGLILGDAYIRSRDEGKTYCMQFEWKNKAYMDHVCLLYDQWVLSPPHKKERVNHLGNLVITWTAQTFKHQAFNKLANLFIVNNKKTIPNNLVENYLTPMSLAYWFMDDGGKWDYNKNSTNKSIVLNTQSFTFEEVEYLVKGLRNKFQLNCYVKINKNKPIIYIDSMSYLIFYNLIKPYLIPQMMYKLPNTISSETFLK

T5: I-SceI K86R/G100T (Saccharomyces cerevisiae, UniProt P03882 1-235, K86R;G100T)
T5 sequence: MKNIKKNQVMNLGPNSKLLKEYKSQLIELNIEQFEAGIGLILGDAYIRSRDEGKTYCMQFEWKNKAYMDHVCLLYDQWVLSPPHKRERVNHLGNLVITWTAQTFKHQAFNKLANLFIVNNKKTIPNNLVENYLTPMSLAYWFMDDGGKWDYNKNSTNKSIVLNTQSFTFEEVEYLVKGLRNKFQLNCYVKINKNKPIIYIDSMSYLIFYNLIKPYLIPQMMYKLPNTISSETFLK

T6: I-SceI wild type (K86/G100) (Saccharomyces cerevisiae, UniProt P03882 1-235)
T6 sequence: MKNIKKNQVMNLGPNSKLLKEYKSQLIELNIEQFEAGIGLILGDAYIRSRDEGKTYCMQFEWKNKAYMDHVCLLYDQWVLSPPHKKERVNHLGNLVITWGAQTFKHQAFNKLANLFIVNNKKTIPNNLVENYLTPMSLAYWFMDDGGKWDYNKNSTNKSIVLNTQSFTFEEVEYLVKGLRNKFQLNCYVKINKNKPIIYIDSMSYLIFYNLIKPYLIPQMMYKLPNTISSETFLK

T7: I-SceI G100V (Saccharomyces cerevisiae, UniProt P03882 1-235, G100V)
T7 sequence: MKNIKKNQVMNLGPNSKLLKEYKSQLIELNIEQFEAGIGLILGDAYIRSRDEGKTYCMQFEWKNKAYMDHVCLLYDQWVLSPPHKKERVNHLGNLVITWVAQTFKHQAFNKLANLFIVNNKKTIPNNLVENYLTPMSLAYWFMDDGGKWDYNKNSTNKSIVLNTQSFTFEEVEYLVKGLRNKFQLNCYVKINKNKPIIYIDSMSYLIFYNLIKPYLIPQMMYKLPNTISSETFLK

T8: I-SceI G100C (Saccharomyces cerevisiae, UniProt P03882 1-235, G100C)
T8 sequence: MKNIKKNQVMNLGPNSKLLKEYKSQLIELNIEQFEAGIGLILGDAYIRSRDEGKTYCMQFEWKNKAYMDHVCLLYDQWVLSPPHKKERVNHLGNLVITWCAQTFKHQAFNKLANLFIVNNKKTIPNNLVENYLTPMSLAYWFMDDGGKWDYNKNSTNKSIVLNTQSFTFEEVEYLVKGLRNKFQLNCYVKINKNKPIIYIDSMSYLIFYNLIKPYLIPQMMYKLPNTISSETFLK

T9: I-SceI K86R (Saccharomyces cerevisiae, UniProt P03882 1-235, K86R)
T9 sequence: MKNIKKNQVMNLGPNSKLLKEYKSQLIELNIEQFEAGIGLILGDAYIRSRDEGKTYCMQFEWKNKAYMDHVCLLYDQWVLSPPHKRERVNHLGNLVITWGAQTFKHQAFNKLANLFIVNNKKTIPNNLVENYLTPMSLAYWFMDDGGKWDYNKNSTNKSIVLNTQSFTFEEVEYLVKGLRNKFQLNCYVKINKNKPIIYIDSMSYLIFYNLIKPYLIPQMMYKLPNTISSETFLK


Experiments:
Test in all cases: filter binding
I-SceI K86R/G100C = target: T1, I-SceI K86R/G100C
I-SceI G100S = target: T2, I-SceI G100S
I-SceI K86R/G100S = target: T3, I-SceI K86R/G100S
I-SceI G100T = target: T4, I-SceI G100T
I-SceI K86R/G100T = target: T5, I-SceI K86R/G100T
[1] = target: T6, I-SceI wild type (K86/G100)
I-SceI G100V = target: T7, I-SceI G100V
I-SceI G100C = target: T8, I-SceI G100C
I-SceI K86R = target: T9, I-SceI K86R

Row | Binder | Kd (I-SceI K86R/G100C) [nM] | Kd (I-SceI G100S) [nM] | Kd (I-SceI K86R/G100S) [nM] | Kd (I-SceI G100T) [nM] | Kd (I-SceI K86R/G100T) [nM] | Kd [1] [nM] | Kd (I-SceI G100V) [nM] | Kd (I-SceI G100C) [nM] | Kd (I-SceI K86R) [nM]
1 | A/T+4 (WT) I-SceI target, filter binding duplex (dsDNA) DNA 1: AACGAATAAAAGTTACGCTAGGGATAACAGGGTAATATAGCGAAAGAGTAGATATT DNA 2: CAATATCTACTCTTTCGCTATATTACCCTGTTATCCCTAGCGTAACTTT | 74 ± 12 | 150 ± 26 | 83 ± 27 | 39 ± 13 | 96 ± 16 | 9 ± 3 | 240 ± 51 | 110 ± 30 | 35 ± 5
2 | C/G+4 I-SceI target, filter binding duplex (dsDNA) DNA 1: AACGAATAAAAGTTACGCTAGGGATAACCGGGTAATATAGCGAAAGAGTAGATATT DNA 2: CAATATCTACTCTTTCGCTATATTACCCGGTTATCCCTAGCGTAACTTT | 7.5 ± 2.3 | 32 ± 10 | 23 ± 4.3 | 10 ± 1.5 | 8.2 ± 0.86 | 20 ± 4.6 | 230 ± 27 | 34 ± 8.8 | 39 ± 10
